In data set [1] the test system is HeLa Kyoto. Put plainly: solubility change mitosis vs G1/S (difference of NP-40 vs SDS log2 ratios) (log2 ratio difference); higher = more soluble in mitosis.
Data set [2] has as its system HeLa Kyoto. The data set can be described thus: thermal stability score vs G1/S (z-score of summed log2 fold changes over temperatures); higher = more thermally stable than in G1/S.
Data set [3] relates to HeLa Kyoto. Put plainly: melting temperature (median over replicates), in situ; higher = more thermally stable.
Data set [4] deals with HeLa Kyoto. Put plainly: solubility in G1/S (NP-40 vs SDS abundance) (log2 ratio); higher = more soluble. The following applies: cell cycle stage: G1/S.
Where [5] appears, read: cell cycle stage: early G1 (4.5 h after nocodazole release).
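Throughout, for melting temperature (median over replicates), in situ: HeLa Kyoto cells synchronized by double thymidine or nocodazole block, proteins quantified by TMT10plex mass spectrometry, three independent biological replicates.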
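Throughout, for solubility change mitosis vs G1/S (difference of NP-40 vs SDS log2 ratios): synchronized HeLa Kyoto cells (double thymidine block for G1/S, nocodazole release for mitosis), protein amounts in NP-40 versus SDS lysates quantified by mass spectrometry, three biological replicates.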
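Throughout, for solubility in G1/S (NP-40 vs SDS abundance): HeLa Kyoto cells arrested at G1/S by double thymidine block, proteins quantified by TMT10plex mass spectrometry in mild NP-40 versus SDS extracts, three biological replicates.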
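Throughout, for thermal stability score vs G1/S (z-score of summed log2 fold changes over temperatures): synchronized HeLa Kyoto cells, proteins quantified by TMT10plex mass spectrometry, three biological replicates, mitosis taken 0.5 h after nocodazole release, G1/S directly after double thymidine block.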

For “MAAPCEGQAFAVGVEKNWGAVVRSPEGTPQKIRQLIDEGIAPEEGGVDAKDTSATSQSVNGSPQAEQPSLESTSKEAFFSRVETFSSLKWAGKPFELSPLVCAKYGWVTVECDMLKCSSCQAFLCASLQPAFDFDRYKQRCAELKKALCTAHEKFCFWPDSPSPDRFGMLPLDEPAILVSEFLDRFQSLCHLDLQLPSLRPEDLKTMCLTEDKISLLLHLLEDELDHRTDERKTTIKLGSDIQVHVTACILSVCGWACSSSLESMQLSLITCSQCMRKVGLWGFQQIESSMTDLDASFGLTSSPIPGLEGRPERLPLVPESPRRMMTRSQDATFSPGSEQAEKSPGPIVSRTRSWDSSSPVDRPEPEAASPTTRTRPVTRSMGTGDTPGLEVPSSPLRKAKRARLCSSSSSDTSSRSFFDPTSQHRDWCPWVNITLGKESRENGGTEPDASAPAEPGWKAVLTILLAHKQSSQPAETDSMSLSEKSRKVFRIFRQWESLCSC [ZC3HC1]”, the “solubility change mitosis (log2)” value in the data set on HeLa Kyoto [1] was -0.163. Further, the values for the thermal stability score in the data set on HeLa Kyoto [2] (setting [5]) and in the data set with HeLa Kyoto [2] (cell cycle stage: mitosis) were 0.508 and 1.84, respectively. Moreover, the melting temperature is 49.3 °C with HeLa Kyoto [3] (cell cycle stage: G1/S) and 49.2 °C with HeLa Kyoto [3] (cell cycle stage: mitosis). Also, the “solubility in G1/S (log2)” value with HeLa Kyoto [4] came to 0.00532.
Regarding “MAAPDLSTNLQEEATCAICLDYFTDPVMTDCGHNFCRECIRRCWGQPEGPYACPECRELSPQRNLRPNRPLAKMAEMARRLHPPSPVPQGVCPAHREPLAAFCGDELRLLCAACERSGEHWAHRVRPLQDAAEDLKAKLEKSLEHLRKQMQDALLFQAQADETCVLWQKMVESQRQNVLGEFERLRRLLAEEEQQLLQRLEEEELEVLPRLREGAAHLGQQSAHLAELIAELEGRCQLPALGLLQDIKDALRRVQDVKLQPPEVVPMELRTVCRVPGLVETLRRFRGDVTLDPDTANPELILSEDRRSVQRGDLRQALPDSPERFDPGPCVLGQERFTSGRHYWEVEVGDRTSWALGVCRENVNRKEKGELSAGNGFWILVFLGSYYNSSERALAPLRDPPRRVGIFLDYEAGHLSFYSATDGSLLFIFPEIPFSGTLRPLFSPLSSSPTPMTICRPKGGSGDTLAPQ [TRIM11]”, the “solubility change mitosis (log2)” value in the data set on HeLa Kyoto [1] is -0.192. The values for the thermal stability score in the data set on HeLa Kyoto [2] (setting [5]) and in the data set with HeLa Kyoto [2] (cell cycle stage: mitosis) were 0.605 and 0.584, respectively. The melting temperature with HeLa Kyoto [3] (cell cycle stage: G1/S) came to 50.8 °C; with HeLa Kyoto [3] (cell cycle stage: mitosis) it was 49.4 °C. In the data set with HeLa Kyoto [4], the “solubility in G1/S (log2)” value stood at 0.185.
For the sequence “MAAPEGSGLGEDARLDQETAQWLRWDKNSLTLEAVKRLIAEGNKEELRKCFGARMEFGTAGLRAAMGPGISRMNDLTIIQTTQGFCRYLEKQFSDLKQKGIVISFDARAHPSSGGSSRRFARLAATTFISQGIPVYLFSDITPTPFVPFTVSHLKLCAGIMITASHNPKQDNGYKVYWDNGAQIISPHDKGISQAIEENLEPWPQAWDDSLIDSSPLLHNPSASINNDYFEDLKKYCFHRSVNRETKVKFVHTSVHGVGHSFVQSAFKAFDLVPPEAVPEQKDPDPEFPTVKYPNPEEGKGVLTLSFALADKTKARIVLANDPDADRLAVAEKQDSGEWRVFSGNELGALLGWWLFTSWKEKNQDRSALKDTYMLSSTVSSKILRAIALKEGFHFEETLTGFKWMGNRAKQLIDQGKTVLFAFEEAIGYMCCPFVLDKDGVSAAVISAELASFLATKNLSLSQQLKAIYVEYGYHITKASYFICHDQETIKKLFENLRNYDGKNNYPKACGKFEISAIRDLTTGYDDSQPDKKAVLPTSKSSQMITFTFANGGVATMRTSGTEPKIKYYAELCAPPGNSDPEQLKKELNELVSAIEEHFFQPQKYNLQPKAD [PGM2]”, in the data set on HeLa Kyoto [1], the “solubility change mitosis (log2)” value is -0.112. For the same sequence, the results for the thermal stability score in the data set on HeLa Kyoto [2] (setting [5]) and in the data set on HeLa Kyoto [2] (cell cycle stage: mitosis) were -0.0187 and -1.07, respectively. Also, the melting temperature came out at 59.1 °C in the data set on HeLa Kyoto [3] (cell cycle stage: G1/S) and 58.5 °C in the data set with HeLa Kyoto [3] (cell cycle stage: mitosis). The “solubility in G1/S (log2)” value in the data set with HeLa Kyoto [4] worked out at 0.169.
For “MAAPKGSLWVRTQLGLPPLLLLTMALAGGSGTASAEAFDSVLGDTASCHRACQLTYPLHTYPKEEELYACQRGCRLFSICQFVDDGIDLNRTKLECESACTEAYSQSDEQYACHLGCQNQLPFAELRQEQLMSLMPKMHLLFPLTLVRSFWSDMMDSAQSFITSSWTFYLQADDGKIVIFQSKPEIQYAPHLEQEPTNLRESSLSKMSYLQMRNSQAHRNFLEDGESDGFLRCLSLNSGWILTTTLVLSVMVLLWICCATVATAVEQYVPSEKLSIYGDLEFMNEQKLNRYPASSLVVVRSKTEDHEEAGPLPTKVNLAHSEI [TMEM59]”, the “solubility change mitosis (log2)” value with HeLa Kyoto [1] turned out to be 0.0194. Besides, the thermal stability score in the data set on HeLa Kyoto [2] (setting [5]) is 0.0515; in the data set on HeLa Kyoto [2] (cell cycle stage: mitosis) it was -0.215. The melting temperature with HeLa Kyoto [3] (cell cycle stage: G1/S) is 54.8 °C; in the data set with HeLa Kyoto [3] (cell cycle stage: mitosis) it was 53.1 °C. In the data set with HeLa Kyoto [4], the “solubility in G1/S (log2)” value was 0.0662.
With “MAAPMTPAARPEDYEAALNAALADVPELARLLEIDPYLKPYAVDFQRRYKQFSQILKNIGENEGGIDKFSRGYESFGVHRCADGGLYCKEWAPGAEGVFLTGDFNGWNPFSYPYKKLDYGKWELYIPPKQNKSVLVPHGSKLKVVITSKSGEILYRISPWAKYVVREGDNVNYDWIHWDPEHSYEFKHSRPKKPRSLRIYESHVGISSHEGKVASYKHFTCNVLPRIKGLGYNCIQLMAIMEHAYYASFGYQITSFFAASSRYGTPEELQELVDTAHSMGIIVLLDVVHSHASKNSADGLNMFDGTDSCYFHSGPRGTHDLWDSRLFAYSSWEILRFLLSNIRWWLEEYRFDGFRFDGVTSMLYHHHGVGQGFSGDYSEYFGLQVDEDALTYLMLANHLVHTLCPDSITIAEDVSGMPALCSPISQGGGGFDYRLAMAIPDKWIQLLKEFKDEDWNMGDIVYTLTNRRYLEKCIAYAESHDQALVGDKSLAFWLMDAEMYTNMSVLTPFTPVIDRGIQLHKMIRLITHGLGGEGYLNFMGNEFGHPEWLDFPRKGNNESYHYARRQFHLTDDDLLRYKFLNNFDRDMNRLEERYGWLAAPQAYVSEKHEGNKIIAFERAGLLFIFNFHPSKSYTDYRVGTALPGKFKIVLDSDAAEYGGHQRLDHSTDFFSEAFEHNGRPYSLLVYIPSRVALILQNVDLPN [GBE1]”, the “solubility change mitosis (log2)” value in the data set with HeLa Kyoto [1] was -0.104. Also, the thermal stability score in the data set with HeLa Kyoto [2] (setting [5]) is -0.0259; with HeLa Kyoto [2] (cell cycle stage: mitosis), 0.998. Besides, the melting temperature amounted to 49.7 °C in the data set with HeLa Kyoto [3] (cell cycle stage: G1/S) and 49.6 °C in the data set with HeLa Kyoto [3] (cell cycle stage: mitosis). Besides, the “solubility in G1/S (log2)” value in the data set with HeLa Kyoto [4] is -0.184.
